Values quoted from earlier work, collected in patent US20260345619A1 (Principia Biopharma Inc., priority 2023, published 2026).

B1: reslizumab: anti-interleukin (IL)-5 agent (antibody, chains of the INN, looked up, V domains shown)
VH: EVQLVESGGGLVQPGGSLRLSCAVSGLSLTSNSVNWIRQAPGKGLEWVGLIWSNGDTDYNSAIKSRFTISRDTSKSTVYLQMNSLRAEDTAVYYCAREYYGYFDYWGQGTLVTVSS
VL: DIQMTQSPSSLSASVGDRVTITCLASEGISSYLAWYQQKPGKAPKLLIYGANSLQTGVPSRFSGSGSATDYTLTISSLQPEDFATYYCQQSYKFPNTFGQGTKVEVK
B2: mepolizumab: anti-interleukin (IL)-5 agent (antibody, chains of the INN, looked up, V domains shown)
VH: QVTLRESGPALVKPTQTLTLTCTVSGFSLTSYSVHWVRQPPGKGLEWLGVIWASGGTDYNSALMSRLSISKDTSRNQVVLTMTNMDPVDTATYYCARDPPSSLLRLDYWGRGTPVTVSS
VL: DIVMTQSPDSLAVSLGERATINCKSSQSLLNSGNQKNYLAWYQQKPGQPPKLLIYGASTRESGVPDRFSGSGSGTDFTLTISSLQAEDVAVYYCQNVHSFPFTFGGGTKLEIK

Conditions: for efficacy: severe asthma, eosinophilic phenotype

Row | Molecule | efficacy | patients with no decrease in oral corticosteroid (OCS) dose or lack of asthma control (high eosinophilic group (Bel E H et al., 2014)) [%]
1 | B1 | have shown efficacy | –
2 | B2 | have shown efficacy | 36
